The values that follow come from the supplement of paper PMC10567573.

To fix the notation:
B1: SMG5 (parent)
chain: FVSIAQSEQESLLQQAQAQFRMAQ
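Note: lentivirally expressed fusions sorted by FACS into six bins by GFP to DsRed ratio, PSI derived from sequencing read proportions per bin multiplied by bin number.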

This series covers variants of B1. The experiment in a line: protein stability index of a GFP-peptide fusion (GPS, HEK-293T) (PSI 1-6); higher = more stable. The note with it: c terminus: a fixed tail appended.
Take FVSIAQSEQESLSQQAQAQFRMAQ [L13S]: the protein stability index stood at 2.74.
Take FVSIAQSEQESLEQQAQAQFRMAQ [L13E]: the protein stability index is 2.13.
Regarding FVSIAQSEQESLFQQAQAQFRMAQ [L13F], the protein stability index came to 1.5.
On to FVSIAQSEQESLQQQAQAQFRMAQ [L13Q], for which the protein stability index stood at 2.6.
Turning to FVSIAQSEQESLDQQAQAQFRMAQ [L13D], the protein stability index came out at 3.
For the variant FVSIAQSEQESMLQQAQAQFRMAQ [L12M], the protein stability index was determined as 2.44.
Take FVSIAQSEQESDLQQAQAQFRMAQ [L12D]: the protein stability index was found to be 3.33.
To FVSIAQSEQESSLQQAQAQFRMAQ [L12S] belongs 2.21.
As for FVSIAQSEQESFLQQAQAQFRMAQ [L12F], the protein stability index was found to be 2.02.
On to FVSIAQSEQESRLQQAQAQFRMAQ [L12R], for which the protein stability index worked out at 2.4.
With FVSIAQSEQESQLQQAQAQFRMAQ [L12Q], the protein stability index is 2.66.
To FVSIAQSEQESHLQQAQAQFRMAQ [L12H] belongs 2.72; to FVSIAQSEQESALQQAQAQFRMAQ [L12A], 2.69; to FVSIAQSEQESNLQQAQAQFRMAQ [L12N], 2.64.
To FVSIAQSEQESPLQQAQAQFRMAQ [L12P] belongs 2.48.
For FVSIAQSEQESELQQAQAQFRMAQ [L12E], the protein stability index stood at 2.48.
Consider FVSIAQSEQESVLQQAQAQFRMAQ [L12V], for which the protein stability index is 2.31.
As to FVSIAQSEQESGLQQAQAQFRMAQ [L12G], the protein stability index worked out at 2.12.
As to FVSIAQSEQESWLQQAQAQFRMAQ [L12W], the protein stability index amounted to 1.75.
FVSIAQSEQESILQQAQAQFRMAQ [L12I]: the protein stability index stood at 2.53.
To FVSIAQSEQESTLQQAQAQFRMAQ [L12T] belongs 2.54; to FVSIAQSEQESKLQQAQAQFRMAQ [L12K], 2.4; to FVSIAQSEQESYLQQAQAQFRMAQ [L12Y], 1.61.
FVSIAQSEQESCLQQAQAQFRMAQ [L12C]: the protein stability index amounted to 2.17.
For the variant FVSIAQSEQEDLLQQAQAQFRMAQ [S11D], the protein stability index amounted to 2.46.
On to FVSIAQSEQEQLLQQAQAQFRMAQ [S11Q], for which the protein stability index was found to be 2.23.
Regarding FVSIAQSEQECLLQQAQAQFRMAQ [S11C], the protein stability index is 2.56.
On to FVSIAQSEQEMLLQQAQAQFRMAQ [S11M], for which the protein stability index turned out to be 1.97.
With FVSIAQSEQEFLLQQAQAQFRMAQ [S11F], the protein stability index turned out to be 1.56.
Regarding FVSIAQSEQEGLLQQAQAQFRMAQ [S11G], the protein stability index was 1.2.
FVSIAQSEQEKLLQQAQAQFRMAQ [S11K]: the protein stability index turned out to be 2.
Take FVSIAQSEQEELLQQAQAQFRMAQ [S11E]: the protein stability index turned out to be 2.56.
To FVSIAQSEQELLLQQAQAQFRMAQ [S11L] belongs 1.99; to FVSIAQSEQETLLQQAQAQFRMAQ [S11T], 2.63.
To FVSIAQSEQEWLLQQAQAQFRMAQ [S11W] belongs 1.79; to FVSIAQSEQEYLLQQAQAQFRMAQ [S11Y], 2.04.
To FVSIAQSEQEILLQQAQAQFRMAQ [S11I] belongs 1.69.
Regarding FVSIAQSEQEHLLQQAQAQFRMAQ [S11H], the protein stability index is 2.04.
As for FVSIAQSEQERLLQQAQAQFRMAQ [S11R], the protein stability index was found to be 2.37.
As for FVSIAQSEQENLLQQAQAQFRMAQ [S11N], the protein stability index is 2.17.
Take FVSIAQSEQEPLLQQAQAQFRMAQ [S11P]: the protein stability index came to 2.6.
As for FVSIAQSEQEALLQQAQAQFRMAQ [S11A], the protein stability index is 2.4.
For FVSIAQSEQEVLLQQAQAQFRMAQ [S11V], the protein stability index was 1.59.
As for FVSIAQSNQESLLQQAQAQFRMAQ [E8N], the protein stability index is 1.92.
Consider FVSIAQSLQESLLQQAQAQFRMAQ [E8L], for which the protein stability index worked out at 2.19.
For the variant FVSIAQSTQESLLQQAQAQFRMAQ [E8T], the protein stability index worked out at 1.84.
For the variant FVSIAQSPQESLLQQAQAQFRMAQ [E8P], the protein stability index was 1.62.
To FVSIAQSIQESLLQQAQAQFRMAQ [E8I] belongs 1.9; to FVSIAQSQQESLLQQAQAQFRMAQ [E8Q], 2.44; to FVSIAQSHQESLLQQAQAQFRMAQ [E8H], 2.02.
With FVSIAQSRQESLLQQAQAQFRMAQ [E8R], the protein stability index came out at 1.42.
In the case of FVSIAQSMQESLLQQAQAQFRMAQ [E8M], the protein stability index amounted to 1.57.
Regarding FVSIAQSSQESLLQQAQAQFRMAQ [E8S], the protein stability index worked out at 1.82.
As to FVSIAQSYQESLLQQAQAQFRMAQ [E8Y], the protein stability index turned out to be 1.4.
Turning to FVSIAQSKQESLLQQAQAQFRMAQ [E8K], the protein stability index was found to be 2.07.
Regarding FVSIAQSVQESLLQQAQAQFRMAQ [E8V], the protein stability index stood at 1.39.
To FVSIAQSEQESLLQQANAQFRMAQ [Q17N] belongs 2.33; to FVSIAQSEQESLLQQAHAQFRMAQ [Q17H], 1.91; to FVSIAQSEQESLLQQAEAQFRMAQ [Q17E], 2.22.
With FVSIAQSEQESLLQQAIAQFRMAQ [Q17I], the protein stability index was 2.02.
Consider FVSIAQSEQESLLQQAPAQFRMAQ [Q17P], for which the protein stability index came out at 3.35.
In the case of FVSIAQSEQESLLQQAGAQFRMAQ [Q17G], the protein stability index turned out to be 2.17.
As for FVSIAQSEQESLLQQAMAQFRMAQ [Q17M], the protein stability index was 2.13.
To FVSIAQSEQESLLQQASAQFRMAQ [Q17S] belongs 2.48; to FVSIAQSEQESLLQQAWAQFRMAQ [Q17W], 1.39.
To FVSIAQSEQESLLQQAYAQFRMAQ [Q17Y] belongs 1.8; to FVSIAQSEQESLLQQACAQFRMAQ [Q17C], 1.76.
To FVSIAQSEQESLLQQATAQFRMAQ [Q17T] belongs 1.73; to FVSIAQSEQESLLQQAKAQFRMAQ [Q17K], 2.33.
In the case of FVSIAQSEQESLLQQAAAQFRMAQ [Q17A], the protein stability index came to 1.95.
FVSIAQSEQESLLQQAFAQFRMAQ [Q17F]: the protein stability index was determined as 1.85.
As to FVSIAQSEQESLLQQARAQFRMAQ [Q17R], the protein stability index came to 3.07.
To FVSIAQSEQESLLQQALAQFRMAQ [Q17L] belongs 2.04; to FVSIAQSEQESLLQQAVAQFRMAQ [Q17V], 2.03.
For the variant FVSIAQSEQESLLQQADAQFRMAQ [Q17D], the protein stability index was determined as 2.37.
For the variant FVSIAQSEQESLLMQAQAQFRMAQ [Q14M], the protein stability index is 2.18.
Regarding FVSIAQSEQESLLNQAQAQFRMAQ [Q14N], the protein stability index is 2.59.
Take FVSIAQSEQESLLGQAQAQFRMAQ [Q14G]: the protein stability index is 2.77.
To FVSIAQSEQESLLVQAQAQFRMAQ [Q14V] belongs 1.64.
Consider FVSIAQSEQESLLRQAQAQFRMAQ [Q14R], for which the protein stability index was determined as 2.21.
For the variant FVSIAQSEQESLLIQAQAQFRMAQ [Q14I], the protein stability index stood at 2.25.
Take FVSIAQSEQESLLYQAQAQFRMAQ [Q14Y]: the protein stability index was determined as 1.7.
Take FVSIAQSEQESLLTQAQAQFRMAQ [Q14T]: the protein stability index was 2.09.
Consider FVSIAQSEQESLLHQAQAQFRMAQ [Q14H], for which the protein stability index turned out to be 2.4.
Turning to FVSIAQSEQESLLFQAQAQFRMAQ [Q14F], the protein stability index is 1.84.
For the variant FVSIAQSEQESLLPQAQAQFRMAQ [Q14P], the protein stability index worked out at 2.17.
To FVSIAQSEQESLLLQAQAQFRMAQ [Q14L] belongs 2.4.
On to FVSIAQSEQESLLCQAQAQFRMAQ [Q14C], for which the protein stability index came to 1.79.
To FVSIAQSEQESLLKQAQAQFRMAQ [Q14K] belongs 2.79; to FVSIAQSEQESLLEQAQAQFRMAQ [Q14E], 2.88; to FVSIAQSEQESLLSQAQAQFRMAQ [Q14S], 2.54.
On to FVSIAQSEQESLLWQAQAQFRMAQ [Q14W], for which the protein stability index worked out at 2.52.
As to FVSIAQSEQESLLDQAQAQFRMAQ [Q14D], the protein stability index amounted to 2.4.
Take FVSIAQSEQESLLAQAQAQFRMAQ [Q14A]: the protein stability index worked out at 2.11.
